Results published in patent publication US20040018971A1 (published 2004).
Where no end group is shown, it is not given here. [ ]: non-standard residue; d: D form. Abu = CC[C@H](N)C(=O)O

Columns and labels:
[1] = target: HLA-A*6801 (human); assay: competition with 125I-labelled standard peptide for purified HLA; gel filtration
[2] = target: T1, HLA-DRB1*0101 (human); assay: competition with 125I-labeled standard peptide, purified HLA-DR, gel filtration
T1 construct: also called DR1

[3] = target: T2, HLA-DRB1*0401 (human); assay: as above
T2 construct: also called DR4w4

[4] = target: T3, HLA-DRB1*0701 (human); assay: as above
T3 construct: also called DR7

[5] = target: T4, HLA-DRB1*0401 (human); assay: competition with 125I probe peptide, purified HLA
T4 construct: also called DR4w4

[6] = target: HLA-DR4w4 (DRB1*0401), purified HLA class II molecule (human); assay: competition with 125I-labelled probe peptide, purified HLA-DR
[7] = target: HLA-DR1 (DRB1*0101), purified HLA class II molecule (human); assay: as above
[8] = target: HLA-DR7 (DRB1*0701), purified HLA class II molecule (human); assay: as above
[9] = target: HLA-A*0203 (human); assay: competition with 125I-labelled probe peptide for purified HLA, gel filtration
[10] = target: HLA-A*0202 (human); assay: as above
[11] = target: T5, HLA-A*0201 (human); assay: as above
T5 construct: also called HLA-A2.1

[12] = target: HLA-A*0206 (human); assay: as above
[13] = target: T6, HLA-DR4w4 (DRB1*0401) (human); assay: competition with 125I-labelled probe peptide on purified HLA-DR, gel filtration; IC50 of standard peptide / IC50 of test peptide
T6 construct: Purified HLA class II molecule

[14] = target: T7, HLA-DR7 (DRB1*0701) (human); assay: as above
T7 construct: Purified HLA class II molecule

[15] = target: HLA-DR1 (DRB1*0101) (human); assay: as above
[16] = target: T8, HLA-DR3 (DRB1*0301) (human); assay: as above
T8 construct: Purified HLA class II molecule

[17] = target: T9, HLA-A*0201 (human); assay: competition with 125I probe peptide for purified HLA
T9 construct: also called HLA-A2.1

[18] = target: HLA-A*6802 (human); assay: as above
[19] = target: HLA-A*0206 (human); assay: as above
[20] = target: HLA-A*0202 (human); assay: as above
[21] = target: HLA-A*0203 (human); assay: as above
[22] = target: T10, HLA-A*0201 (human); assay: competition for purified HLA vs 125I-labelled probe peptide, gel filtration
T10 construct: also called HLA-A2.1

[23] = target: T11, HLA-A*6802 (human); assay: as above
T11 construct: purified HLA class I molecule

[24] = target: T12, HLA-A*0203 (human); assay: as above
T12 construct: purified HLA class I molecule

[25] = target: T13, HLA-A*0202 (human); assay: as above
T13 construct: purified HLA class I molecule

## MVLESILRR [Her2/neu.889.V2]
[1]
  IC50: 22 nM

B1: HER2/neu DR supermotif exemplary peptide LLVVVLGVVFGILIK (position 662) (peptide)
peptide: LLVVVLGVVFGILIK
notes: synthetic 15-mer; also called Her2/neu.662
[2]
  relative binding ratio: -0.0008 ratio (standard IC50 / test IC50)
[3]
  relative binding ratio: -0.0025 ratio (standard IC50 / test IC50)
[4]
  relative binding ratio: 0.0019 ratio (standard IC50 / test IC50)

## KEILDEAYVMAGVGS [Her2/neu.765]
[5]
  IC50: 6160 nM

## VEPLTPSGAMPNQAQ (also called Her2/neu.697) [HER2/neu DR supermotif exemplary 15-mer VEPLTPSGAMPNQAQ (position 697)]
[6]
  relative binding ratio: -0.0025 ratio (IC50 standard / IC50 test)
[7]
  relative binding ratio: -0.0008 ratio (IC50 standard / IC50 test)
[8]
  relative binding ratio: -0.0011 ratio (IC50 standard / IC50 test)

## VLIQRNPQV [Her2/neu.153V9]
[9]
  IC50: 135 nM
[10]
  IC50: 768 nM
[11]
  IC50: 55 nM
[12]
  IC50: 385 nM

## IKVLRENTSPKANKE (also called Her2/neu.752) [HER2/neu peptide IKVLRENTSPKANKE (position 752)]
[13]
  relative binding ratio: -0.0032 ratio
[14]
  relative binding ratio: -0.0011 ratio
[15]
  relative binding ratio: -0.0005 ratio

## AIKVLRENTSPKANK (also called Her2/neu.751) [HER2/neu peptide AIKVLRENTSPKANK (position 751)]
[16]
  relative binding ratio: 0.0075 ratio

## VCPLHNQEVTAEDGT (also called Her2/neu.314) [HER2/neu DR supermotif exemplary 15-mer VCPLHNQEVTAEDGT (position 314)]
[6]
  relative binding ratio: -0.0025 ratio (IC50 standard / IC50 test)
[7]
  relative binding ratio: -0.0004 ratio (IC50 standard / IC50 test)
[8]
  relative binding ratio: -0.0013 ratio (IC50 standard / IC50 test)

## DLTLGLEPSEEEAPR (also called Her2/neu.1058) [HER2/neu peptide DLTLGLEPSEEEAPR (position 1058)]
[16]
  relative binding ratio: -0.0025 ratio

## AT[Abu]RWGLLV [Her2/neu.5.T2B3V9 ATBRWGLLV]
[17]
  IC50: 16700 nM
[18]
  IC50: 1740 nM
[19]
  IC50: 2180 nM
[20]
  IC50: 215 nM

## AM[Abu]RWGLLV [Her2/neu.5M2B3V9 AMBRWGLLV]
[21]
  IC50: 16 nM
[17]
  IC50: 36 nM
[19]
  IC50: 726 nM
[20]
  IC50: 473 nM

## AV[Abu]RWGLLV [Her2/neu.5V2B3V9 AVBRWGLLV]
[21]
  IC50: 141 nM
[17]
  IC50: 10000 nM
[18]
  IC50: 4710 nM
[19]
  IC50: 2180 nM
[20]
  IC50: 215 nM

## VVGILLVVVLGVVFG (also called Her2/neu.658) [HER2/neu DR supermotif exemplary 15-mer VVGILLVVVLGVVFG (position 658)]
[6]
  relative binding ratio: -0.0025 ratio (IC50 standard / IC50 test)
[7]
  relative binding ratio: -0.0004 ratio (IC50 standard / IC50 test)
[8]
  relative binding ratio: -0.0013 ratio (IC50 standard / IC50 test)

## TQLFEDNYALAVLDN (also called Her2/neu.105) [HER2/neu DR supermotif exemplary 15-mer TQLFEDNYALAVLDN (position 105)]
[6]
  relative binding ratio: -0.0025 ratio (IC50 standard / IC50 test)
[7]
  relative binding ratio: 0.053 ratio (IC50 standard / IC50 test)
[8]
  relative binding ratio: 0.016 ratio (IC50 standard / IC50 test)

B2: HER2/neu DR supermotif exemplary peptide PSTFKGTPTAENPEY (position 1234) (peptide)
peptide: PSTFKGTPTAENPEY
notes: synthetic 15-mer; also called Her2/neu.1234
[2]
  relative binding ratio: -0.0005 ratio (standard IC50 / test IC50)
[3]
  relative binding ratio: -0.0032 ratio (standard IC50 / test IC50)
[4]
  relative binding ratio: -0.0011 ratio (standard IC50 / test IC50)

## KTFGSLAFV (analog of Her2/neu.369) [Her2/neu.369.T2V9]
[22]
  IC50: 35 nM
[23]
  IC50: 17 nM
[24]
  IC50: 1010 nM
[25]
  IC50: 13 nM
